Laboratory results from US20210238229A1, “PEPTIDE FOR DISEASE TREATMENT” (UNIVERSITY COLLEGE CORK - NATIONAL UNIVERSITY OF IRELAND, …, priority 2018, published 2021).
Where no end group is shown, it is not given here.

Assays:
HUVEC = assay: cAMP in primary human umbilical vein endothelial cells; format: cell-based; settings: 15 min stimulation
Protocol: Primary human umbilical vein endothelial cells (HUVEC) were purchased from PromoCell (Heidelberg, Germany). HUVEC were cultured in 100 mm cell culture dishes and were seeded at 75,000 per well in 24-well plates at passage 5-7, for stimulation. Stimulation with Ang-(1-6) or C21 and the blockers was carried out as described above.
cAMP concentration in cell lysates was determined using Direct cAMP ELISA kit (Enzo Life Sciences Ltd., Exeter, United Kingdom). Briefly, wells of 96-well plate (Goat Anti-Rabbit IgG pre-coated) were neutralized with 50 μl of Neutralizing Reagent. Next, 100 μl of acetylated cAMP standard or cell lysate was added, followed by 50 μl of blue cAMP-Alkaline Phosphatase Conjugate and 50 μl of yellow EIA Rabbit Anti-cAMP antibody. The plate was then incubated on a shaker (˜400 rpm) at room temperature for 2 h. Next, the wells were aspirated and rinsed three times with Wash Buffer (1:10, Tris buffered saline containing detergents and sodium azide in deionized water). After the final wash, the plate was tapped against clean paper towel to remove any remaining Wash Buffer. […] The enzymatic reaction was stopped by adding 50 μl of Stop Solution, and the absorbance at 405 nm was measured immediately. The cAMP concentration was determined from non-linear standard curve using GraphPad Prism 6.0 software. […]

AT2 receptor [1] = molecular target: T1, AT2 receptor (Homo sapiens, UniProt P50052); assay: cAMP in AT2-transfected HEK293 cells; format: cell-based; settings: for intracellular cAMP production: AT2-transfected HEK293, 15 min stimulation
T1 construct: expressed in transfected cells; host or cells: HEK-293, transient transfection with PolyFect
T1 sequence (P50052 1-363): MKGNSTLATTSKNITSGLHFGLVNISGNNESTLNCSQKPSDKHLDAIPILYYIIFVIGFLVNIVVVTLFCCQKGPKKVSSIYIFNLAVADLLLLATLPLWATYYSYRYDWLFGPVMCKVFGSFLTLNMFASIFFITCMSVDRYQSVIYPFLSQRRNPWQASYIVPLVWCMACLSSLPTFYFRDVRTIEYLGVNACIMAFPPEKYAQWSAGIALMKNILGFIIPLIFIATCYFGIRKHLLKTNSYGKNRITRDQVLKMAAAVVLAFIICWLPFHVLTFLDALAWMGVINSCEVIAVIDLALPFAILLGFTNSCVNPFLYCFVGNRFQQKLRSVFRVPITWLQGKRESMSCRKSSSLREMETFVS
Protocol: Human embryonic kidney (HEK-293) cells were cultured in DMEM medium supplemented with FBS (10%), HEPES buffer (1%), sodium pyruvate (1%), and L-glutamine (1%) and maintained under standard conditions (5% CO2, 95% humidity and 37° C.). Cells were cultured in 100 mm cell culture dishes and seeded in 48-well plates at a density of 75,000 cells per well. The next day, HEK-293 cells were transfected using a transient transfection procedure following the manufacturer's instructions. Briefly, 150 ng of control plasmid pcDNA3.1 or a combination of 50 ng of pcDNA3.1 and 100 ng of expression vectors containing the cDNA for Mas, MrgD, AT1 or AT2, were mixed with serum-free medium and PolyFect transfection reagent. After 10 min incubation at room temperature, which allowed the complex formation, complete medium was added and the total volume was transferred into appropriate wells of the 48-well plate. The cells were incubated for 16-20 hrs. The next day, the medium was replaced by serum-free medium 1 hr before stimulation. After stimulation with A779, D-Pro, PD123319, forskolin (all 10^−6 M), or PTX (50 ng/ml), or SQ22536 (2×10^−6M) for 15 min, the solvent, Ang-(1-6) or C21 (all in the mentioned concentrations) were added for 15 min. Then, the cells were lysed by adding 180 μl/well of 0.1M hydrochloric acid with 0.1% Triton X-100, and the lysates were stored at −80° C. until cAMP measurement. The protein concentration was determined using Pierce BCA Protein Assay Kit according to the manufacturer's protocol (Thermo Fisher Scientific, Waltham, Mass., USA).
cAMP concentration in cell lysates was determined using Direct cAMP ELISA kit (Enzo Life Sciences Ltd., Exeter, United Kingdom). Briefly, wells of 96-well plate (Goat Anti-Rabbit IgG pre-coated) were neutralized with 50 μl of Neutralizing Reagent. Next, 100 μl of acetylated cAMP standard or cell lysate was added, followed by 50 μl of blue cAMP-Alkaline Phosphatase Conjugate and 50 μl of yellow EIA Rabbit Anti-cAMP antibody. The plate was then incubated on a shaker (˜400 rpm) at room temperature for 2 h. Next, the wells were aspirated and rinsed three times with Wash Buffer (1:10, Tris buffered saline containing detergents and sodium azide in deionized water). After the final wash, the plate was tapped against clean paper towel to remove any remaining Wash Buffer. To each well, 200 μl p-Nitrophenyl Phosphate Substrate Solution was added, and the plate was incubated for 1 h at room temperature. The enzymatic reaction was stopped by adding 50 μl of Stop Solution, and the absorbance at 405 nm was measured immediately. The cAMP concentration was determined from non-linear standard curve using GraphPad Prism 6.0 software.
The results are illustrated by FIG. 1A.
pcDNA-transfected HEK293 cells and AT2-transfected HEK293 cells were stimulated for 15 min with a range of concentrations (10^−16 to 10^−6 M) of Ang-(1-6). The results are illustrated by FIGS. 1B and 1C.
AT2-transfected HEK293 cells were stimulated for 15 min with a range of concentrations (10^−13 to 10^−6 M) of C21, Ang (1-4) and Ang (1-7) PBS and the concentration of cAMP was measured in accordance with the methodology provided. The results are illustrated by FIGS. 6 and 7.
AT2-transfected HEK293 cells were stimulated for 15 min with C21, Ang-(1-6) and a range of concentrations (10^−14 to 10^−7 M) of Ala^1-Ser^4-Ang-(1-6), and the concentration of cAMP was measured in accordance with the methodology provided.
AT2-transfected HEK293 cells were stimulated for 15 min with Ang-(1-6) and a range of concentrations (10^−15 to 10^−7 M) of Ser^4-Ang-(1-6) and the concentration of cAMP was measured in accordance with the methodology provided.

AT2 receptor [2] = molecular target: T1, AT2 receptor; assay: Block of Ang-(1-6) mediated cAMP signal in AT2-transfected HEK293 cells; format: cell-based; settings: Ang-(1-6) 10^−10 M, increasing antagonist concentrations
Protocol: Human embryonic kidney (HEK-293) cells were cultured in DMEM medium supplemented with FBS (10%), HEPES buffer (1%), sodium pyruvate (1%), and L-glutamine (1%) and maintained under standard conditions (5% CO2, 95% humidity and 37° C.). Cells were cultured in 100 mm cell culture dishes and seeded in 48-well plates at a density of 75,000 cells per well. The next day, HEK-293 cells were transfected using a transient transfection procedure following the manufacturer's instructions. […] The protein concentration was determined using Pierce BCA Protein Assay Kit according to the manufacturer's protocol (Thermo Fisher Scientific, Waltham, Mass., USA).
cAMP concentration in cell lysates was determined using Direct cAMP ELISA kit (Enzo Life Sciences Ltd., Exeter, United Kingdom). […] The enzymatic reaction was stopped by adding 50 μl of Stop Solution, and the absorbance at 405 nm was measured immediately. The cAMP concentration was determined from non-linear standard curve using GraphPad Prism 6.0 software.
Cells were stimulated for 15 min with (a) 10^−11 M and 10^−1° M Ang-(1-6), (b) Ala^1-Ang-(1-6) (10^−10 M) or (c) a range of concentrations (10^−12M to 10^−8M) of Ala^1-Ang (1-6) together with Ang-(1-6) at a concentration of 10^−10M. The concentration of cAMP was measured in accordance with the methodology provided.

[3] = Peptide degradation in mouse kidney membranes; format: in vitro ADME; settings: after 15 minutes, compared to Ang-(1-7) and Ang II
Protocol: Peptides (10^−4M) were incubated with 45 μg of murine kidney membrane preparations and diluted with 50 mM Tris-HCl buffer pH 7.4 laced with 0.1% BSA to minimise adhesion of the peptide onto the tube walls. Incubations proceeded for the desired time, after which the reaction was stopped by addition of half volume of 350 mM HClO4. Samples were then centrifuged to remove any particulates prior to LCMS analysis.
Ang-(1-6) degradation in mouse kidney membranes over 30 minutes compared to Ang-(1-7) and Ang II. (FIG. 4A)

[4] = tested on: Human kidney cancer A498 cells; assay: Colony formation assay; format: cell-based; settings: daily treatment for 5 days
Protocol: Human kidney cancer A498 cells were seeded at 300 cells/well in a 6-well plate. The next day, cells were treated with various peptides daily. Each condition was run in triplicate. After 5 days of treatment, cells were washed once with PBS after media removal, stained with 0.5% crystal violet in 30% ethanol and 3% formaldehyde for 10 min at RT and washed with distilled water. Colonies were counted under the microscope.
Human renal cancer cells were treated with Ang-(1-6) or analogues and the effect on colony formation counted. Such cells are used for in vivo experiments in rodents when implanted subcutaneously or into the kidney to generate a rapidly forming and growing tumour, being leathal if untreated.

CCCCOC(=O)NS(=O)(=O)c1sc(CC(C)C)cc1-c1ccc(Cn2ccnc2)cc1 [C21]
cAMP stimulation in primary endothelial cells (HUVEC) (HUVEC): can stimulate such cells

ARVSIH [Ala^1-Ser^4-Ang-(1-6), variant of Ang-(1-6) with Ala at position 1 and Ser at position 4]
concentration at Emax (cAMP) (AT2 receptor [1]; AT2-transfected HEK293): 10^−11 M
intracellular cAMP production (AT2 receptor [1]): increases intracellular cAMP production
increase in intracellular cAMP production compared with Ang (1-6) (AT2 receptor [1]; same concentration (10^−11M)): greater increase

ARVYIH [Ala^1-Ang-(1-6), variant of Ang-(1-6) with Ala at position 1, AT2 antagonist]
block of cAMP-generating capacity of Ang-(1-6) (AT2 receptor [2]): completely blocked
intracellular cAMP production (AT2 receptor [1]): no effect

DRVSIH [Ser^4-Ang-(1-6), variant of Ang-(1-6) with Ser at position 4]
AT2 stimulation relative to Ang (1-6) (AT2 receptor [1]; AT2-transfected HEK293, 10^−15 to 10^−7 M): comparable to Ang (1-6)
intracellular cAMP production (AT2 receptor [1]): increases intracellular cAMP production

DRVY (Angiotensin-2; UniProt P01019 25-28, looked up, fragment) [Ang (1-4), angiotensin fragment 1-4, reference compound]
intracellular cAMP production (AT2 receptor [1]): do not increase intracellular cAMP

DRVYIH [Ang (1-6), DRVYIH]
peptide degradation [3]: rapid

DRVYIHP [Ang (1-7), reference compound]
intracellular cAMP production (AT2 receptor [1]): do not increase intracellular cAMP

RVSIH [Ser^4-Ang (2-6), fragment peptide 2-6 with Ser substitution]
number of colonies versus solvent (PBS) [4]: significant reduction of colonies

RVYIH [Ang (2-6), truncated version of Ang (1-6)]
number of colonies versus solvent (PBS) [4]: significant reduction of colonies
